± gives the uncertainty stated by the source.
Assay: self-splicing fitness, log relative to wild type (ln ratio); higher = more splicing; Tetrahymena group I intron in knt gene, E. coli kanamycin selection, DiMSum; sequences stand for … in CUCUCU…GGAGGGAAAAGUUAUCAGGCAUGCACCUGGUAGCUAGUCUUUAAACCAAUAGAUUGCAUCGGUUUAAAAGGCAAGACCGUCAAAUUGCGGGAAAGGGGUCAACAGCCGUUCAGUACCAAGUCUCAGGGGAAACUUUGAGAUGGCCUUGCAAAGGGUAUGGUAAUAAGCUGACGGACAUGGUCCUAACCACGCAGCCAAGUCCUAAGUCAACAGAUCUUCUGUUGAUAUGGAUGCAGUUCACAGACUAAAUGUCGGUCGGGGAAGAUGUAUUCUUCUCAUAAGAUAUAGUCGGACCUCUCCUUAAUGGGAGCUAGCGGAUGAAGUGAUGCAACACUGGAGCCGCUGGGAACUAAUUUGUAUGCGAAAGUAUAUUGAUUAGUUUUGGAGUACUCGUGGUCG
Method in brief: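 Library with all eight P1ex-region intron nucleotides randomised, intron inside the knt kanamycin-resistance gene on pET-22b(+), in E. coli BL21(DE3). Cells grew overnight at 37°C or 30°C on LB agar with or without 25 μg/mL kanamycin (plus 100 μg/mL carbenicillin, 50 μM IPTG, 0.2% rhamnose), in six replicate transformations. Pooled colonies were amplicon-sequenced on Illumina HiSeq 2500. DiMSum fitness is the error-weighted combination of wild-type-normalised replicate fold changes, kanamycin versus none.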

| Sequence | self-splicing fitness (ln) (30 °C) | self-splicing fitness (ln) (37 °C) |
| --- | --- | --- |
| CUAUAGCAAUAUUACGUCCU | -3.39 ± 0.22 | -2.7 ± 0.29 |
| CUCAAGCAAUAUUACGAAUG | -2.96 ± 0.15 | -1.66 ± 0.2 |
| CUCAAGCAAUAUUACGACCG | -1.26 ± 0.12 | -0.638 ± 0.16 |
| CUCAAGCAAUAUUACGAUCA | -1.3 ± 0.3 | -1.09 ± 0.2 |
| CUCAAGCAAUAUUACGCGAG | -2.5 ± 0.2 | -3.14 ± 0.3 |
| CUCAAGCAAUAUUACGCGCG | -3.19 ± 0.18 | -2.41 ± 0.29 |
| CUCAAGCAAUAUUACGCGUU | -4.07 ± 0.46 | -2.92 ± 0.3 |
| CUCAAGCAAUAUUACGGAGC | -3.11 ± 0.11 | -2.54 ± 0.14 |
| CUCAAGCAAUAUUACGGAUA | -2.72 ± 0.24 | -2.32 ± 0.28 |
| CUCAAGCAAUAUUACGGCUA |  | -2.22 ± 0.35 |
| CUCAAGCAAUAUUACGGGAA | -2.51 ± 0.16 | -1.19 ± 0.14 |
| CUCAAGCAAUAUUACGGGCC | -4.15 ± 0.35 | -2.78 ± 0.36 |
| CUCAAGCAAUAUUACGGUAA | -1.8 ± 0.27 | -1.66 ± 0.18 |
| CUCAAGCAAUAUUACGUAAC | -4.43 ± 0.19 | -2.08 ± 0.15 |
| CUCAAGCAAUAUUACGUCCU | -4 ± 0.27 | -2.79 ± 0.19 |
| CUCAAGCAAUAUUACGUCGA | -3.37 ± 0.31 | -1.41 ± 0.18 |
| CUCAAGCAAUAUUACGUUCC | -3.08 ± 0.32 | -2.32 ± 0.26 |
| CUCCAGCAAUAUUACGAACC | -3.49 ± 0.26 | -1.91 ± 0.32 |
| CUCCAGCAAUAUUACGAGAA | -2.14 ± 0.38 | -1.91 ± 0.31 |
| CUCCAGCAAUAUUACGAGUG | -2.45 ± 0.11 | -1.34 ± 0.11 |
| CUCCAGCAAUAUUACGAUGA | -2.36 ± 0.25 | -2.7 ± 0.27 |
| CUCCAGCAAUAUUACGCAUU | -3.38 ± 0.13 | -3.51 ± 0.23 |
| CUCCAGCAAUAUUACGCCCC | -4.17 ± 0.46 |  |
| CUCCAGCAAUAUUACGGCAA | -3.55 ± 0.17 | -2.71 ± 0.16 |
| CUCCAGCAAUAUUACGGCGG | -4.65 ± 0.28 | -3.1 ± 0.22 |
| CUCCAGCAAUAUUACGGUGG | -3.79 ± 0.19 | -2.42 ± 0.18 |
| CUCCAGCAAUAUUACGGUUC | -2.51 ± 0.17 | -3.19 ± 0.35 |

| Sequence | self-splicing fitness (ln) (30 °C) | self-splicing fitness (ln) (37 °C) |
| --- | --- | --- |
| CUCCAGCAAUAUUACGUAAA | -3.45 ± 0.17 | -2.17 ± 0.18 |
| CUCCAGCAAUAUUACGUAGA | -3.31 ± 0.15 | -2.58 ± 0.16 |
| CUCCAGCAAUAUUACGUAGG | -2.92 ± 0.11 | -1.9 ± 0.15 |
| CUCCAGCAAUAUUACGUCGG | -3.14 ± 0.15 | -2.36 ± 0.15 |
| CUCCAGCAAUAUUACGUGUG | -2.17 ± 0.069 | -1.5 ± 0.08 |
| CUCCAGCAAUAUUACGUUCC | -4.23 ± 0.46 | -1.99 ± 0.35 |
| CUCCAGCAAUAUUACGUUGG | -3.68 ± 0.19 | -2.49 ± 0.21 |
| CUCGAGCAAUAUUACGAGAU | -2.87 ± 0.23 | -2.76 ± 0.27 |
| CUCGAGCAAUAUUACGAGCG | -3.66 ± 0.43 | -2.84 ± 0.25 |
| CUCGAGCAAUAUUACGAGGA | -1.94 ± 0.26 |  |
| CUCGAGCAAUAUUACGCAAG | -3.95 ± 0.43 | -1.35 ± 0.3 |
| CUCGAGCAAUAUUACGCACG | -1.6 ± 0.23 |  |
| CUCGAGCAAUAUUACGCCUC | -1.8 ± 0.21 |  |
| CUCGAGCAAUAUUACGCGAG | -3.97 ± 0.42 | -2.98 ± 0.47 |
| CUCGAGCAAUAUUACGCUGG | -4.31 ± 0.24 | -3.22 ± 0.22 |
| CUCGAGCAAUAUUACGGCCU |  | -1.37 ± 0.36 |
| CUCGAGCAAUAUUACGUAGC |  | -2.19 ± 0.27 |
| CUCGAGCAAUAUUACGUCAG |  | -0.401 ± 0.39 |
| CUCGAGCAAUAUUACGUCAU | -4.1 ± 0.27 | -3.38 ± 0.28 |
| CUCGAGCAAUAUUACGUGAA | -2.47 ± 0.21 | -2.93 ± 0.47 |
| CUCGAGCAAUAUUACGUGAU | -2.16 ± 0.14 | -0.542 ± 0.12 |
| CUCGAGCAAUAUUACGUUUC | -1.78 ± 0.29 | -1.25 ± 0.25 |
| CUCUAGCAAUAUUACGAAAC | -2.61 ± 0.35 |  |
| CUCUAGCAAUAUUACGAACC | -3.06 ± 0.37 |  |
| CUCUAGCAAUAUUACGAAGU | -3.44 ± 0.21 | -4.77 ± 0.23 |
| CUCUAGCAAUAUUACGACAG | -1.95 ± 0.14 | -0.569 ± 0.13 |
| CUCUAGCAAUAUUACGACCG | -0.158 ± 0.23 | -0.785 ± 0.24 |

| Sequence | self-splicing fitness (ln) (30 °C) | self-splicing fitness (ln) (37 °C) |
| --- | --- | --- |
| CUCUAGCAAUAUUACGAGAA | -3.05 ± 0.41 | -2.02 ± 0.21 |
| CUCUAGCAAUAUUACGAGAU | -3.29 ± 0.43 | -2.94 ± 0.31 |
| CUCUAGCAAUAUUACGAGCA | -3.95 ± 0.33 | -3.04 ± 0.23 |
| CUCUAGCAAUAUUACGAUCG | -1.57 ± 0.081 | -0.281 ± 0.12 |
| CUCUAGCAAUAUUACGAUGA | -1.93 ± 0.2 | -1.93 ± 0.29 |
| CUCUAGCAAUAUUACGAUGC | -1.49 ± 0.17 | -3.25 ± 0.33 |
| CUCUAGCAAUAUUACGAUUG | -1.48 ± 0.091 | -1.24 ± 0.12 |
| CUCUAGCAAUAUUACGCCCU | -3.28 ± 0.26 | -2.2 ± 0.19 |
| CUCUAGCAAUAUUACGCUUU | -3.13 ± 0.28 | -2.08 ± 0.22 |
| CUCUAGCAAUAUUACGGCGG | -3.5 ± 0.15 | -3.12 ± 0.23 |
| CUCUAGCAAUAUUACGGGGA | -1.69 ± 0.17 | -1.62 ± 0.14 |
| CUCUAGCAAUAUUACGUCAA | -4.19 ± 0.29 | -3.45 ± 0.25 |
| CUCUAGCAAUAUUACGUCAU | -2.83 ± 0.4 | -4.18 ± 0.39 |
| CUCUAGCAAUAUUACGUCCC | -2.69 ± 0.27 | -3.71 ± 0.39 |
| CUCUAGCAAUAUUACGUCUU | -2.57 ± 0.12 | -3.16 ± 0.16 |
| CUCUAGCAAUAUUACGUUGA | -2.49 ± 0.27 | -3.81 ± 0.36 |
| CUGAAGCAAUAUUACGAAAG | -0.525 ± 0.12 | -0.0848 ± 0.16 |
| CUGAAGCAAUAUUACGACGU | -2.75 ± 0.12 | -1.09 ± 0.1 |
| CUGAAGCAAUAUUACGAGCG | 0.242 ± 0.072 | 0.0253 ± 0.1 |
| CUGAAGCAAUAUUACGAGUC | -3.88 ± 0.19 | -2.16 ± 0.21 |
| CUGAAGCAAUAUUACGAUAA | -2.51 ± 0.25 | -2.06 ± 0.29 |
| CUGAAGCAAUAUUACGCACU | -4.4 ± 0.39 | -1.32 ± 0.18 |
| CUGAAGCAAUAUUACGCAGC | -3.2 ± 0.4 | -1.77 ± 0.45 |
| CUGAAGCAAUAUUACGCAGU | -3.09 ± 0.19 | -3.23 ± 0.43 |
| CUGAAGCAAUAUUACGCCGG | -1.86 ± 0.25 | -1.19 ± 0.25 |

Reference: the supplement of paper PMC7877785
